The labels stand for the following.
B1: Upf1-SmBiT [S. cerevisiae] / Edc3 [S. cerevisiae] (parent)
chain 1: MVGSGSHTPYDISNSPSDVNVQPATQLNSTLVEDDDVDNQLFEEAQVTETGFRSPSASDNSCAYCGIDSAKCVIKCNSCKKWFCNTKNGTSSSHIVNHLVLSHHNVVSLHPDSDLGDTVLECYNCGRKNVFLLGFVSAKSEAVVVLLCRIPCAQTKNANWDTDQWQPLIEDRQLLSWVAEQPTEEEKLKARLITPSQISKLEAKWRSNKDATINDIDAPEEQEAIPPLLLRYQDAYEYQRSYGPLIKLEADYDKQLKESQALEHISVSWSLALNNRHLASFTLSTFESNELKVAIGDEMILWYSGMQHPDWEGRGYIVRLPNSFQDTFTLELKPSKTPPPTHLTTGFTAEFIWKGTSYDRMQDALKKFAIDKKSISGYLYYKILGHQVVDISFDVPLPKEFSIPNFAQLNSSQSNAVSHVLQRPLSLIQGPPGTGKTVTSATIVYHLSKIHKDRILVCAPSNVAVDHLAAKLRDLGLKVVRLTAKSREDVESSVSNLALHNLVGRGAKGELKNLLKLKDEVGELSASDTKRFVKLVRKTEAEILNKADVVCCTCVGAGDKRLDTKFRTVLIDESTQASEPECLIPIVKGAKQVILVGDHQQLGPVILERKAADAGLKQSLFERLISLGHVPIRLEVQYRMNPYLSEFPSNMFYEGSLQNGVTIEQRTVPNSKFPWPIRGIPMMFWANYGREEISANGTSFLNRIEAMNCERIITKLFRDGVKPEQIGVITPYEGQRAYILQYMQMNGSLDKDLYIKVEVASVDAFQGREKDYIILSCVRANEQQAIGFLRDPRRLNVGLTRAKYGLVILGNPRSLARNTLWNHLLIHFREKGCLVEGTLDNLQLCTVQLVRPQPRKTERPMNAQFNVESEMGDFPKFQDFDAQSMVSFSGQIGDFGNAFVDNTELSSYINNEYWNFENFKSAFSQKQNRNEIDDRNLYQEEASHLNSNFARELQREEQKHELSKDFSNLGI
chain 2: MSQFVGFGVQVELKDGKLIQGKIAKATSKGLTLNDVQFGDGGKSQAFKVRASRLKDLKVLTVASQSGKRKQQRQQQQQNDYNQNRGEHIDWQDDDVSKIKQQEDFDFQRNLGMFNKKDVFAQLKQNDDILPENRLQGHNRKQTQLQQNNYQNDELVIPDAKKDSWNKISSRNEQSTHQSQPQQDAQDDLVLEDDEHEYDVDDIDDPKYLPITQSLNITHLIHSATNSPSINDKTKGTVINDKDQVLAKLGQMIISQSRSNSTSLPAANKQTTIRSKNTKQNIPMATPVQLLEMESITSEFFSINSAGLLENFAVNASFFLKQKLGGRARLRLQNSNPEPLVVILASDSNRSGAKALALGRHLCQTGHIRVITLFTCSQNELQDSMVKKQTDIYKKCGGKIVNSVSSLESAMETLNSPVEIVIDAMQGYDCTLSDLAGTSEVIESRIKSMISWCNKQRGSTKVWSLDIPNGFDAGSGMPDIFFSDRIEATGIICSGWPLIAINNLIANLPSLEDAVLIDIGIPQGAYSQRTSLRKFQNCDLFVTDGSLLLDL
B2: Upf1-SmBiT [S. cerevisiae] / Dbp2 [S. cerevisiae] (parent)
chain 1: B1 chain 1
chain 2: MTYGGRDQQYNKTNYKSRGGDFRGGRNSDRNSYNDRPQGGNYRGGFGGRSNYNQPQELIKPNWDEELPKLPTFEKNFYVEHESVRDRSDSEIAQFRKENEMTISGHDIPKPITTFDEAGFPDYVLNEVKAEGFDKPTGIQCQGWPMALSGRDMVGIAATGSGKTLSYCLPGIVHINAQPLLAPGDGPIVLVLAPTRELAVQIQTECSKFGHSSRIRNTCVYGGVPKSQQIRDLSRGSEIVIATPGRLIDMLEIGKTNLKRVTYLVLDEADRMLDMGFEPQIRKIVDQIRPDRQTLMWSATWPKEVKQLAADYLNDPIQVQVGSLELSASHNITQIVEVVSDFEKRDRLNKYLETASQDNEYKTLIFASTKRMCDDITKYLREDGWPALAIHGDKDQRERDWVLQEFRNGRSPIMVATDVAARGIDVKGINYVINYDMPGNIEDYVHRIGRTGRAGATGTAISFFTEQNKGLGAKLISIMREANQNIPPELLKYDRRSYGGGHPRYGGGRGGRGGYGRRGGYGGGRGGYGGNRQRDGGWGNRGRSNY
B3: Upf1-SmBiT [S. cerevisiae] / Pat1 [S. cerevisiae] (parent)
chain 1: B1 chain 1
chain 2: MSFFGLENSGNARDGPLDFEESYKGYGEHELEENDYLNDETFGDNVQVGTDFDFGNPHSSGSSGNAIGGNGVGATARSYVAATAEGISGPRTDGTAAAGPLDLKPMESLWSTAPPPAMAPSPQSTMAPAPAPQQMAPLQPILSMQDLERQQRQMQQQFMNFHAMGHPQGLPQGPPQQQFPMQPASGQPGPSQFAPPPPPPGVNVNMNQMPMGPVQVPVQASPSPIGMSNTPSPGPVVGATKMPLQSGRRSKRDLSPEEQRRLQIRHAKVEKILKYSGLMTPRDKDFITRYQLSQIVTEDPYNEDFYFQVYKIIQRGGITSESNKGLIARAYLEHSGHRLGGRYKRTDIALQRMQSQVEKAVTVAKERPSKLKDQQAAAGNSSQDNKQANTVLGKISSTLNSKNPRRQLQIPRQQPSDPDALKDVTDSLTNVDLASSGSSSTGSSAAAVASKQRRRSSYAFNNGNGATNLNKSGGKKFILELIETVYEEILDLEANLRNGQQTDSTAMWEALHIDDSSYDVNPFISMLSFDKGIKIMPRIFNFLDKQQKLKILQKIFNELSHLQIIILSSYKTTPKPTLTQLKKVDLFQMIILKIIVSFLSNNSNFIEIMGLLLQLIRNNNVSFLTTSKIGLNLITILISRAALIKQDSSRSNILSSPEISTWNEIYDKLFTSLESKIQLIFPPREYNDHIMRLQNDKFMDEAYIWQFLASLALSGKLNHQRIIIDEVRDEIFATINEAETLQKKEKELSVLPQRSQELDTELKSIIYNKEKLYQDLNLFLNVMGLVYRDGEISELK

The variants in one test derive from B1. Description: NanoBiT (ratiometric protein-fragment complementation assay in live yeast). Conditions: with Edc3 [S. cerevisiae]; four experimental replicates; read off a plot.
Consider chain 1 C122S, for which the screen value was -2.8 log2.

Variants of B2 are the subject of the next test. The description is as above. As to conditions: with Dbp2 [S. cerevisiae]; four experimental replicates; read off a plot.
Take chain 1 C122S: the screen value was found to be 2 log2.

Variants of B3 are the subject of another test. The test is described as above. As to conditions: with Pat1 [S. cerevisiae]; four experimental replicates; read off a plot.
In the case of chain 1 C122S, the screen value was -1.6 log2.

The values above are taken from paper PMC11573789.
